Experiments:
[1] = molecular target: T1, C1s-cleaved glycosylated recombinant human C2 (human, UniProt P06681 21-243; P06681 244-752, N-linked glycans); assay: ELISA, C1s-cleaved C2 coated at 200 ng per well
T1 construct: Cleavage at the Arg243-|-Lys244 bond as printed; also called C1s-cleaved recombinant human C2; C1s-cleaved C2; not shown: N-terminal his-tag
T1 sequence 1: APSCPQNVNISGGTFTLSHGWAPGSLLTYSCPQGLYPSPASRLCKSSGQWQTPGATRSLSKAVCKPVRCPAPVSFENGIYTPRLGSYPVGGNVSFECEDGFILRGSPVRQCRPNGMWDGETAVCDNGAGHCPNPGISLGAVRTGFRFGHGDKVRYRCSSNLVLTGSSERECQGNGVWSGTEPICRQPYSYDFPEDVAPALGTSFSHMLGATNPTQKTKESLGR
T1 sequence 2: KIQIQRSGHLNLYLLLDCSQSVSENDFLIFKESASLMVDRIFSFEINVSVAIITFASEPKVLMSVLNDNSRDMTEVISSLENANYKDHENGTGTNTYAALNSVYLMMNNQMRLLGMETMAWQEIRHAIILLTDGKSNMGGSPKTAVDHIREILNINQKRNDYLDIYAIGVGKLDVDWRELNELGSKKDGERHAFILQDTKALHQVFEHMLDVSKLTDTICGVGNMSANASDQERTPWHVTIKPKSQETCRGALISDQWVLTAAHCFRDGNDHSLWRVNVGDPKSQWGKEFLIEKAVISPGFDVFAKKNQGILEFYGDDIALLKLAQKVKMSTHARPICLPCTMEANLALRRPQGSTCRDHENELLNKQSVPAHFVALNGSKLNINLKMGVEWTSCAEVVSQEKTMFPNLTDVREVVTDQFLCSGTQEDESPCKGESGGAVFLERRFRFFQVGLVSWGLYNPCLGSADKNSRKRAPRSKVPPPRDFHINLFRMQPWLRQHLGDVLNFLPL

[2] = molecular target: T2, glycosylated recombinant human complement C2 with a N-terminal his-tag (human, UniProt P06681 21-752, N-linked glycans); assay: ELISA, C2 coated at 25 or 200 ng per well
T2 construct: also called recombinant human C2; wild-type recombinant C2; not shown: N-terminal his-tag
T2 sequence: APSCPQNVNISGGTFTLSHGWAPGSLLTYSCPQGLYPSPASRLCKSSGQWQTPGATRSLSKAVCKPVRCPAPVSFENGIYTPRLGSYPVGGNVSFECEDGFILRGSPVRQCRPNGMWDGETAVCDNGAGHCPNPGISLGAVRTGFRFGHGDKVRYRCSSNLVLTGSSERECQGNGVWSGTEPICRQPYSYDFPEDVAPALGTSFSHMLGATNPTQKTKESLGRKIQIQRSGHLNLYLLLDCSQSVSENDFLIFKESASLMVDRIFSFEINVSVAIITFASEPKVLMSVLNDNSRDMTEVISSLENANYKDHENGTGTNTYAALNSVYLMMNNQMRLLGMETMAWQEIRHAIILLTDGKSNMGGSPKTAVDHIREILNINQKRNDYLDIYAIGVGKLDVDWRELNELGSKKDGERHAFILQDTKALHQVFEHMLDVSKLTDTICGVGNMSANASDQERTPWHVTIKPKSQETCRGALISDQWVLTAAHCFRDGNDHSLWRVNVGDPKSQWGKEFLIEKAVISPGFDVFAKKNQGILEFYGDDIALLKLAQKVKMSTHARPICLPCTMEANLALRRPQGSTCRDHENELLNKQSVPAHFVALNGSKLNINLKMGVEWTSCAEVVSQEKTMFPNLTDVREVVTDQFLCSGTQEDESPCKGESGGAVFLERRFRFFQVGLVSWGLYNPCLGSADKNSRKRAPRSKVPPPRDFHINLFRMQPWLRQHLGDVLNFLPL
Procedure: Chimeric mouse-human antibodies (human IgG1κ version for anti-C2-32, and human IgG4κ version for anti-C2-5F2.4, -13, -32, -35 and -60) were expressed using FreeStyle™ MAX CHO (CHO-S cells) Expression System (Invitrogen). Expressed chimeric mouse-human anti-human complement C2 antibodies were purified using affinity chromatography protein A columns (GE Healthcare). Using the same ELISA procedure as described in Example 3, all anti-C2 chimeric mAbs were tested for binding to high (200 ng per well) and low (25 ng per well) recombinant C2. Briefly, ELISA plates (Corning) were coated with the indicated amount of C2 in PBS overnight at 4° C. After extensive washing in PBS/0.05% Tween 20, plates were blocked with PBS/0.05% Tween 20/1% BSA fraction V (Roche) for 1 hour at RT. […] After extensive washing in PBS/0.05% Tween 20, binding of antibodies was determined with 1:5000 diluted horseradish peroxidase-conjugated goat anti-human IgG-specific (heavy and light chains) antibodies (Jackson ImmunoResearch) for 1 hour at RT, followed by a ready-to-use solution of TMB substrate (Invitrogen) for colorimetric detection. After adding 1 M H_2SO_4, optical densities were measured at a wavelength of 450 nm (reference wavelength of 655 nm) using a microplate reader (BioRad).

[3] = molecular target: T2, glycosylated recombinant human …; assay: ELISA, recombinant human C2 immobilized at 2 µg/ml
Procedure: Chimeric mouse-human antibodies (human IgG1κ version for anti-C2-32, and human IgG4κ version for anti-C2-5F2.4, -13, -32, -35 and -60) were expressed using FreeStyle™ MAX CHO (CHO-S cells) Expression System (Invitrogen). Expressed chimeric mouse-human anti-human complement C2 antibodies were purified using affinity chromatography protein A columns (GE Healthcare). Using the same ELISA procedure as described in Example 3, all anti-C2 chimeric mAbs were tested for binding to high (200 ng per well) and low (25 ng per well) recombinant C2. Briefly, ELISA plates (Corning) were coated with the indicated amount of C2 in PBS overnight at 4° C. After extensive washing in PBS/0.05% Tween 20, plates were blocked with PBS/0.05% Tween 20/1% BSA fraction V (Roche) for 1 hour at RT. Subsequently, plates were incubated with 0, 0.00002-20.0 (10-fold dilution steps in block buffer) μg/mL protein A-purified chimeric mouse-human IgG1κ and/or IgG4κ anti-C2-5F2.4, -13, -32, -35 and -60 for 1 hour at RT. After extensive washing in PBS/0.05% Tween 20, binding of antibodies was determined with 1:5000 diluted horseradish peroxidase-conjugated goat anti-human IgG-specific (heavy and light chains) antibodies (Jackson ImmunoResearch) for 1 hour at RT, followed by a ready-to-use solution of TMB substrate (Invitrogen) for colorimetric detection. After adding 1 M H_2SO_4, optical densities were measured at a wavelength of 450 nm (reference wavelength of 655 nm) using a microplate reader (BioRad).
Binding of humanized anti-C2-5F2.4 mAbs versions VL3VH3, VL4VH3, VL3VH4, and VL4VH4 to C2 was assessed by ELISA like described above in Example 12 (recombinant human C2 was immobilized to plates at 2 µg/ml).

[4] = molecular target: T2, glycosylated recombinant human …; assay: ELISA, C2 coated at 200 ng per well
[5] = molecular target: T3, glycosylated recombinant human subcomponent C2a (≈70 kDa) (human, UniProt P06681 244-752, N-linked glycans); assay: Western blot of C1s-cleaved C2, non-reducing, mAb at 200 ng/mL
T3 construct: Larger fragment of C1s-cleaved recombinant C2; Start 244 follows from the printed cleavage site; also called purified C2a; recombinant human C2a
T3 sequence: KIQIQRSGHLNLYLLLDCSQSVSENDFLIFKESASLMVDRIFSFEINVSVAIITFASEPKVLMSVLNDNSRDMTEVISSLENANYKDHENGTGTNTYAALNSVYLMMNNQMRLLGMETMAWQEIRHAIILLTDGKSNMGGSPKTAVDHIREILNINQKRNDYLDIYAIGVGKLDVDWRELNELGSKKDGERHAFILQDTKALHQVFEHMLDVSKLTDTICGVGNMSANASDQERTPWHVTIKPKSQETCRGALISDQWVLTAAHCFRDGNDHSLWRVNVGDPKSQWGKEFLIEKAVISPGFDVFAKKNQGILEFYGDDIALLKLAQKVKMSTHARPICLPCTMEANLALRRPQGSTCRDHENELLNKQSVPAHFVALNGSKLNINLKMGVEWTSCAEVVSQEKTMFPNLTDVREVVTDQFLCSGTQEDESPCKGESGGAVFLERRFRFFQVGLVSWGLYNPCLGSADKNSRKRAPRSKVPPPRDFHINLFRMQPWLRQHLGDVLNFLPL
Procedure: (a). Mapping of Epitopes for mAbs Anti-C2-13, -32, -35, -60 and -5F2.4 on Glycosylated Recombinant Human Subcomponents C2a and C2b with Western Blotting Glycosylated recombinant human C2 (range 125-500 ng/lane, see FIG. 9; U-protein Express) or C1s-cleaved glycosylated recombinant human C2 (range 62.5-1000 ng/lane, see FIG. 9; for C2 cleavage procedure, see Example 1(b)) were electrophorized using 4-12% Tris-Bis gels and MOPS running buffer (Invitrogen) under non-reducing conditions in pre-cast SDS-PAGE (NuPage® Novex® system). Then, the C2 proteins were electro-blotted onto a polyvinylidene fluoride (PDVF) transfer membrane (Millipore). After blocking with PBS/0.05% Tween 20/1% BSA fraction V (Roche) for 20 min at RT, PDVF membranes were incubated with anti-C2 mAbs anti-C2-C2-5F2.4 (100 ng/mL), anti-C2-13 (200 ng/mL), anti-C2-32 (200 ng/mL), anti-C2-35 (100 ng/mL) and anti-C2-60 (200 ng/mL) for 1 hour at RT. After extensive washing in PBS/0.05% Tween 20, binding of anti-C2 mAbs was determined with 1:10,000 diluted horseradish peroxidase-conjugated goat anti-mouse Fcγ-specific antibodies (Jackson ImmunoResearch) for 1 hour at RT, followed by a ready-to-use solution of TMB substrate (Sigma) for colorimetric detection.

B1: mouse anti-human complement C2 antibody anti-C2-5F2.4 (mIgG2aκ) (antibody, V domains shown)
VH: EVQLQQSGAELVKPGASVKISCKASGYTFTDYNMDWVKQSHGKSLEWIGDINPNYESTGYNQKFKGKATLTVDKSSSTAYMELRSLTSEDTAVYYCAREDDHDAFAYWGQGTLVTVSA
VL: DNVLTQSPASVVVSLGQRATISCRASKSVRTSGYNYMHWYQQKPGQPPKLLIYLASNLKSGVPARFSGSGSGTDFTLNIHPVEEADAATYYCQHSRELPYTFGGGTKLEIKR
notes: also called mAb 5F2.4
- binding result [1]: binds

B2: chimeric mouse-human IgG4κ anti-human complement C2-5F2.4 (antibody, V domains shown)
VH: EVQLQQSGAELVKPGASVKISCKASGYTFTDYNMDWVKQSHGKSLEWIGDINPNYESTGYNQKFKGKATLTVDKSSSTAYMELRSLTSEDTAVYYCAREDDHDAFAYWGQGTLVTVSA
VL: DIVLTQSPASVVVSLGQRATISCRASKSVRTSGYNYMHWYQQKPGQPPKLLIYLASNLKSGVPARFSGSGSGTDFTLNIHPVEEADAATYYCQHSRELPYTFGGGTKLEIKR
notes: Stabilized human IgG4 / human κ, expressed in CHO-S cells; also called chimeric anti-C2-5F2.4; chuIgG4κ anti-C2-5F2.4
- binding result [2]: binds

B3: humanized IgG4/kappa anti-human complement C2-5F2.4 version VL3VH3 (antibody)
heavy: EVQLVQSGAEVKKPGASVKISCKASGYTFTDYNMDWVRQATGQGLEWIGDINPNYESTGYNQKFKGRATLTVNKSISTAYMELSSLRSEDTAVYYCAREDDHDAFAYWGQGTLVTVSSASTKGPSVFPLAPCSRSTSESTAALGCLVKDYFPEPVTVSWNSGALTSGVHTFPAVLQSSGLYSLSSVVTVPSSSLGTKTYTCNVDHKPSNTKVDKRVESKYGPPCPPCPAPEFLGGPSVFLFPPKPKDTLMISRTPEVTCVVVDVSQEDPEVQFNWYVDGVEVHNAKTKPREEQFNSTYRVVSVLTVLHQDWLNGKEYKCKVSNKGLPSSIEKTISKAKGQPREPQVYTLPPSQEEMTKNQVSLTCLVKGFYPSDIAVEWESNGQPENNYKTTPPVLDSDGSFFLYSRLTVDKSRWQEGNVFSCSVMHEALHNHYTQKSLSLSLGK
light: DNVLTQSPDSLAVSLGERATISCRASKSVRTSGYNYMHWYQQKPGQPPKLLIYLASNLKSGVPDRFSGSGSGTDFTLTISSLQAEDAATYYCQHSRELPYTFGQGTKLEIKRTVAAPSVFIFPPSDEQLKSGTASVVCLLNNFYPREAKVQWKVDNALQSGNSQESVTEQDSKDSTYSLSSTLTLSKADYEKHKVYACEVTHQGLSSPVTKSFNRGEC
notes: Stabilized human IgG4, κ; expressed with the FreeStyle 293 system
- binding result [3]: binds

B4: humanized IgG4/kappa anti-human complement C2-5F2.4 version VL3VH4 (antibody)
heavy: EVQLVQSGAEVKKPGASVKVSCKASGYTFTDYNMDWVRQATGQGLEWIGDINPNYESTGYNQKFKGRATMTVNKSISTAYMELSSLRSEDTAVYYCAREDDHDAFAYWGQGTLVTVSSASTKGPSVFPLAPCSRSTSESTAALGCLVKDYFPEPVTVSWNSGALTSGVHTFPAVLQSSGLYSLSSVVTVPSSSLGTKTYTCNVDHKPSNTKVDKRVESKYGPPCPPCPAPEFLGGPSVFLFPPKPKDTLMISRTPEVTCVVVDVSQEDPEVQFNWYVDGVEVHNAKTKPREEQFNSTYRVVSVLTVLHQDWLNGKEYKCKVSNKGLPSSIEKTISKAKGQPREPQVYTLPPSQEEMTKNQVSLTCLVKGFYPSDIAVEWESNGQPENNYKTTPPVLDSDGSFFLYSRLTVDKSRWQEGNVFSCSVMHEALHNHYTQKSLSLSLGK
light: DNVLTQSPDSLAVSLGERATISCRASKSVRTSGYNYMHWYQQKPGQPPKLLIYLASNLKSGVPDRFSGSGSGTDFTLTISSLQAEDAATYYCQHSRELPYTFGQGTKLEIKRTVAAPSVFIFPPSDEQLKSGTASVVCLLNNFYPREAKVQWKVDNALQSGNSQESVTEQDSKDSTYSLSSTLTLSKADYEKHKVYACEVTHQGLSSPVTKSFNRGEC
notes: as for B3
- binding result [3]: binds

B5: humanized IgG4/kappa anti-human complement C2-5F2.4 version VL4VH3 (antibody)
heavy: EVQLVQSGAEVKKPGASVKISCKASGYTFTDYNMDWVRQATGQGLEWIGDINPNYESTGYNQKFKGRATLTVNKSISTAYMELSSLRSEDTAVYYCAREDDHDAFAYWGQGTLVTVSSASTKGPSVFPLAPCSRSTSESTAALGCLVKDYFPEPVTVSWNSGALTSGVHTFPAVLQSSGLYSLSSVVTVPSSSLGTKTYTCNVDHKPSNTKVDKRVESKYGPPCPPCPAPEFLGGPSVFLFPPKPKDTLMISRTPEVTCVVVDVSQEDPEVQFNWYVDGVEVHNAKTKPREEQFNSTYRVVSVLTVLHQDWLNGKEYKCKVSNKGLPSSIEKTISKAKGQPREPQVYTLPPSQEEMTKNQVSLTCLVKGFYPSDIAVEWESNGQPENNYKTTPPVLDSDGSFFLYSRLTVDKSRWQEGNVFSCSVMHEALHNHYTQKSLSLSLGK
light: DNVLTQSPDSLAVSLGERATINCRASKSVRTSGYNYMHWYQQKPGQPPKLLIYLASNLKSGVPDRFSGSGSGTDFTLTISSLQAEDAATYYCQHSRELPYTFGQGTKLEIKRTVAAPSVFIFPPSDEQLKSGTASVVCLLNNFYPREAKVQWKVDNALQSGNSQESVTEQDSKDSTYSLSSTLTLSKADYEKHKVYACEVTHQGLSSPVTKSFNRGEC
notes: as for B3
- binding result [3]: binds

B6: humanized IgG4/kappa anti-human complement C2-5F2.4 version VL4VH4 (antibody)
heavy: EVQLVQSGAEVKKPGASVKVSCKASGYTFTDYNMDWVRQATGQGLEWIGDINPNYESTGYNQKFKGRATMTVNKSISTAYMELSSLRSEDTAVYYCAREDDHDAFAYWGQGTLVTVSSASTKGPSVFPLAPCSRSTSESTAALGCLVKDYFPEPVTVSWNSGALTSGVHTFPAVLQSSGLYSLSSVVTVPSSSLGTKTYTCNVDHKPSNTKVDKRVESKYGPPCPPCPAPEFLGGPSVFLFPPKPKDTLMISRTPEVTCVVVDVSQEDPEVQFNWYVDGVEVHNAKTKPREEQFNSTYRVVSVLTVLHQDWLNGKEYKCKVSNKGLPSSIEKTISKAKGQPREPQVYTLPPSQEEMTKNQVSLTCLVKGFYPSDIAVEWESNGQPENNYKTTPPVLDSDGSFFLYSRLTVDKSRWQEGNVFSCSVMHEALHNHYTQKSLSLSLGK
light: DNVLTQSPDSLAVSLGERATINCRASKSVRTSGYNYMHWYQQKPGQPPKLLIYLASNLKSGVPDRFSGSGSGTDFTLTISSLQAEDAATYYCQHSRELPYTFGQGTKLEIKRTVAAPSVFIFPPSDEQLKSGTASVVCLLNNFYPREAKVQWKVDNALQSGNSQESVTEQDSKDSTYSLSSTLTLSKADYEKHKVYACEVTHQGLSSPVTKSFNRGEC
notes: as for B3
- binding result [3]: binds

B7: mouse anti-human complement C2 antibody anti-C2-60 (mIgG1κ) (antibody, V domains shown)
VH: QVALKESGPGILQPSQTLSLTCSFSGFSLSTSNMGVGWIRQPSGKGLEWLAHIWWDDDKRYNPALKSRLTISKDTSSNQVFLKIASVDTADTATYFCARIGRPTMITTWYLDVWGAGTTVTVSS
VL: DIQMTQSPASLSVSVGETVTITCRASENIYSNLAWYQQKQGKSPQLLVYAATKLADGVPSRFSGSGSGTQYSLKINSLQSEDFGNYYCQHFWNTPYTFGGGTKLEIKR
notes: Hybridoma antibody, murine IgG1κ; also called antibody 60; hybridoma 60
- binding result [4]: binds
- binding result [5]: binds
- binding result [1]: binds

B8: chimeric mouse-human IgG4κ anti-human complement C2-60 (antibody, V domains shown)
VH: QVQLQQSGPGILQPSQTLSLTCSFSGFSLSTSNMGVGWIRQPSGKGLEWLAHIWWDDDKRYNPALKSRLTISKDTSSNQVFLKIASVDTADTATYFCARIGRPTMITTWYLDVWGAGTTVTVSS
VL: DIQMTQSPASLSVSVGETVTITCRASENIYSNLAWYQQKQGKSPQLLVYAATKLADGVPSRFSGSGSGTQYSLKINSLQSEDFGNYYCQHFWNTPYTFGGGTKLEIKR
notes: Stabilized human IgG4 / human κ, expressed in CHO-S cells; also called chimeric anti-C2-60; chuIgG4κ anti-C2-60
- binding result [2]: binds

— patent US9944717 (BROTEIO PHARMA B V, dated 2018)
